Laboratory results as given in the supplement of paper PMC10126150.
± gives the standard deviation of the averaged measurements.

tested on: ATP; assay: switch fluorescence ratio, 500 uM ATP over buffer (Cy3 cluster intensity, sum of 5 cycles each) (fold (ratio)); higher = stronger signal-on switching upon ATP binding; sequences stand for … in TCGTCGGCAGCGTCAGATGTGTATAAGAGACAGTTTTTTTTTTTTTTTTTTTTTTTTT…TC; conditions: aptamer strand: ATP DNA aptamer (quencher-CACCTGGGGGAGTATTGCGGAGGAAGG + anchor), 100 nM annealed; ATP concentration: 500 uM
In short: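 For every switch-domain sequence, the fluorescence ratio is the mean of per-cluster values, each being summed target-cycle Cy3 intensity over summed buffer-cycle Cy3 intensity. Clusters outside 100-1000 RFU were excluded. On a modified Illumina MiSeq flow-cell, the Cy3-labelled switching-strand clusters were annealed to 100 nM quencher-labelled ATP aptamer, imaged in selection buffer and then after 15 min with 500 uM ATP at 22 °C. Five such cycles were run, with NaOH stripping and re-annealing between them.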
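Further: ATP exposure 15 min at 22 °C before imaging.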

GCGGCCTTTC and TGGACGCGGG are within error of each other in switch fluorescence ratio: 1.2 ± 0.23 for the first, 1.03 ± 0.016 for the second.

AAAAACTAAT and AAGGCGGGTT are within error of each other in switch fluorescence ratio: 0.992 ± 0.088 for the first, 0.9894 ± 0.0085 for the second.

CGTTTTCTCG and TTTCGATGGG are within error of each other in switch fluorescence ratio: 0.994 ± 0.027 for the first, 0.978 ± 0.015 for the second.

ATTCGAAGGT and TAAGGCGAGT are within error of each other in switch fluorescence ratio: 1.004 ± 0.0044 for the first, 1.03 ± 0.052 for the second.

Going from ATGAGCGACG to TCGTACGTTT, the switch fluorescence ratio rises from 0.9921 ± 0.0088 to 1.04 ± 0.021.

Compared with ATCTGTTTTG, TCTAGGGACA is higher in switch fluorescence ratio: 1.02 ± 0.049 for the first, 1.25 ± 0.063 for the second.

Going from ATGATATGGT to GGTTACGTAG, the switch fluorescence ratio rises from 0.983 ± 0.029 to 1.045 ± 0.0078.

AGAAGTTTTG and CTGGCTACTA are within error of each other in switch fluorescence ratio: 1.04 ± 0.054 for the first, 1.03 ± 0.031 for the second.

AATTTGGGAG and TCACAGTTGG are within error of each other in switch fluorescence ratio: 1.01 ± 0.025 for the first, 1.032 ± 0.0034 for the second.

Going from TAGGAGGCTC to CAGCGTTGTT, the switch fluorescence ratio falls from 1.03 ± 0.014 to 0.993 ± 0.018.

TATGGTGGTT and AAAGATATC are within error of each other in switch fluorescence ratio: 1.12 ± 0.12 for the first, 0.984 ± 0.02 for the second.

First: TAAGTCGGAA
Second: TTTTAACACT
The switch fluorescence ratio of the first is lower: 0.996 ± 0.022 for the first, 1.035 ± 0.0085 for the second.

ACAAGGATTC and AAGTCCACAC are within error of each other in switch fluorescence ratio: 0.995 ± 0.025 for the first, 1.05 ± 0.041 for the second.

GCATGCGGGA and GCTTCTTTGT are within error of each other in switch fluorescence ratio: 1.02 ± 0.074 for the first, 0.9984 ± 0.0058 for the second.

ATGTGTTTTT and CGCCGTGTCG are within error of each other in switch fluorescence ratio: 0.98 ± 0.036 for the first, 0.927 ± 0.049 for the second.

TTTCGGCCAA and CGGCGATTTA are within error of each other in switch fluorescence ratio: 1.62 ± 0.76 for the first, 1.003 ± 0.009 for the second.

Going from TCGGGATCTG to TAGCCGGTTC, the switch fluorescence ratio rises from 0.997 ± 0.018 to 1.026 ± 0.01.

Going from CAAGGGGCAG to CAGGCTAGGT, the switch fluorescence ratio falls from 1.009 ± 0.0057 to 0.9873 ± 0.0049.

AGTATGGCGG and TCTTGTGCAT are within error of each other in switch fluorescence ratio: 0.975 ± 0.068 for the first, 1.05 ± 0.03 for the second.

TATATCGGGT and TTTGAGGGA are within error of each other in switch fluorescence ratio: 0.9968 ± 0.0072 for the first, 0.9945 ± 0.0052 for the second.

AGGGGTAGTT and GGTGTTGTTC are the same in switch fluorescence ratio: 1.01 ± 0.029 for the first, 1.01 ± 0.014 for the second.

GGTGGGAGGC and GGCCCGGGGG are within error of each other in switch fluorescence ratio: 0.999 ± 0.059 for the first, 1.01 ± 0.028 for the second.

First: GTAAGTAGCG
Second: CTTGGGGGCT
The switch fluorescence ratio of the first is lower: 0.968 ± 0.02 for the first, 1.002 ± 0.0097 for the second.

First: AATCCGTCAT
Second: TTTAAACGTA
The switch fluorescence ratio of the first is higher: 1.14 ± 0.017 for the first, 0.983 ± 0.033 for the second.

GTCGTAAAGG and CATCGGAGGG are within error of each other in switch fluorescence ratio: 0.998 ± 0.021 for the first, 1.02 ± 0.029 for the second.

CGAGAAGAGA and TCGATGTCGT are within error of each other in switch fluorescence ratio: 1.01 ± 0.013 for the first, 0.9927 ± 0.0059 for the second.

ACAAAGGTCG and TTTAATAAAA are within error of each other in switch fluorescence ratio: 1.01 ± 0.022 for the first, 0.988 ± 0.013 for the second.

TCGCGGGGGA and TCATTGGTTT are within error of each other in switch fluorescence ratio: 1.01 ± 0.037 for the first, 0.998 ± 0.032 for the second.

TATTTGATGT and GAGGGGTGAC are within error of each other in switch fluorescence ratio: 0.991 ± 0.029 for the first, 0.979 ± 0.021 for the second.

Going from GCGCCTGTAT to CGTACAATGG, the switch fluorescence ratio rises from 0.986 ± 0.046 to 1.28 ± 0.088.

CGGCTTTTGG and GAATTTTTGT are within error of each other in switch fluorescence ratio: 0.9617 ± 0.0084 for the first, 0.956 ± 0.018 for the second.

AACGTTCGCG and GGGCATTGTG are the same in switch fluorescence ratio: 1.03 ± 0.032 for the first, 1.03 ± 0.056 for the second.

TGGATTTGGA and GATTTATTTG are within error of each other in switch fluorescence ratio: 0.999 ± 0.02 for the first, 0.989 ± 0.048 for the second.

TACATTATAG and CATCAAGGCA are the same in switch fluorescence ratio: 1.01 ± 0.036 for the first, 1.01 ± 0.019 for the second.

Going from TAGGTCCTGG to GCGGGACTTG, the switch fluorescence ratio rises from 0.9888 ± 0.0074 to 1.03 ± 0.029.

TTTGTACTTT and AAAATCGAGG are within error of each other in switch fluorescence ratio: 1.01 ± 0.041 for the first, 1.016 ± 0.004 for the second.

Going from TTCGATGCAT to ACGATGAAGG, the switch fluorescence ratio falls from 1.58 ± 0.43 to 1.01 ± 0.021.

AATTGATTCT and CCAATTGCGC are the same in switch fluorescence ratio: 1.026 ± 0.0018 for the first, 1.03 ± 0.031 for the second.

GATGTCGCGC and AACGGGAAGA are within error of each other in switch fluorescence ratio: 1.01 ± 0.028 for the first, 1.02 ± 0.028 for the second.

TTGGTTCCGC and TGCAATTTGT are within error of each other in switch fluorescence ratio: 1.53 ± 0.48 for the first, 1 ± 0.078 for the second.

Compared with ACTCCAGGAG, ATTTTAGGCA is lower in switch fluorescence ratio: 1.06 ± 0.025 for the first, 0.996 ± 0.039 for the second.

TTTTATGGGA and GGTGTTTTG are the same in switch fluorescence ratio: 0.9849 ± 0.0032 for the first, 0.9847 ± 0.007 for the second.

ATTCTCATTG and CTGGGCCGTC are within error of each other in switch fluorescence ratio: 0.982 ± 0.038 for the first, 1.01 ± 0.021 for the second.

GTTTGGAGGG and TCTGGTAGGG are within error of each other in switch fluorescence ratio: 0.979 ± 0.029 for the first, 0.99 ± 0.01 for the second.

First: GAAGGGAAGA
Second: ATTTGTAAGC
The switch fluorescence ratio of the first is lower: 0.96 ± 0.012 for the first, 0.9909 ± 0.0068 for the second.

GGGATGGGAC and CATCCGGGGG are within error of each other in switch fluorescence ratio: 1.043 ± 0.0081 for the first, 1.56 ± 0.73 for the second.

TGGGGCGTCT and TTGGTACGGG are the same in switch fluorescence ratio: 1.01 ± 0.043 for the first, 1.01 ± 0.047 for the second.

TTGGGTATGG and AAGTTAGTTT are within error of each other in switch fluorescence ratio: 0.997 ± 0.018 for the first, 0.966 ± 0.043 for the second.

CGGGAGAGTA and AATAATCAAA are within error of each other in switch fluorescence ratio: 1.54 ± 0.82 for the first, 1.01 ± 0.006 for the second.

ATATGCATAG and TTTTCCCGGA are within error of each other in switch fluorescence ratio: 1.05 ± 0.051 for the first, 1.013 ± 0.0028 for the second.

First: GACGATGCGG
Second: AGGGGCTGGT
The switch fluorescence ratio of the first is higher: 1.196 ± 0.0058 for the first, 0.997 ± 0.026 for the second.

GTGATGGGAC and GGTTATAGCT are the same in switch fluorescence ratio: 1.02 ± 0.0077 for the first, 1.02 ± 0.034 for the second.

First: AAGTTCGGTG
Second: CGTGGGGAGT
The switch fluorescence ratio of the first is lower: 0.9695 ± 0.0027 for the first, 1 ± 0.012 for the second.

CGAGGCCTGT and CTACATGAAA are within error of each other in switch fluorescence ratio: 1.02 ± 0.022 for the first, 1.006 ± 0.0034 for the second.

CAGGTTGTGC and GGTATCGGTT are within error of each other in switch fluorescence ratio: 0.98 ± 0.055 for the first, 0.992 ± 0.045 for the second.

CGATTTTGGT and TCGTTGAGGG are within error of each other in switch fluorescence ratio: 0.9633 ± 0.0038 for the first, 0.96 ± 0.036 for the second.

ATTATTCTTT and AGTAGCGTCG are within error of each other in switch fluorescence ratio: 1.01 ± 0.061 for the first, 0.985 ± 0.048 for the second.

TTGTAAAATT and ATTCAGATCT are within error of each other in switch fluorescence ratio: 0.99 ± 0.027 for the first, 1 ± 0.034 for the second.

AAGGTTTCGT and TTGTCCTGCG are within error of each other in switch fluorescence ratio: 1 ± 0.024 for the first, 0.965 ± 0.019 for the second.

AGACTTATTT and AGTTATTGTG are within error of each other in switch fluorescence ratio: 1.01 ± 0.013 for the first, 1.04 ± 0.094 for the second.

Compared with GTGCTGGGCG, TCCGAGTATG is higher in switch fluorescence ratio: 0.994 ± 0.028 for the first, 1.08 ± 0.027 for the second.

TTGTTAACAG and CCGGGTTTGG are within error of each other in switch fluorescence ratio: 0.997 ± 0.018 for the first, 0.984 ± 0.017 for the second.

GGTGATACAG and TCAGTTTTCT are within error of each other in switch fluorescence ratio: 1.003 ± 0.0051 for the first, 1.01 ± 0.057 for the second.

TTTTCATGCC and CTAAGTTGGG are within error of each other in switch fluorescence ratio: 1.09 ± 0.056 for the first, 1.1 ± 0.13 for the second.

First: CGACCACTTT
Second: ATGTTCTATA
The switch fluorescence ratio of the first is higher: 1.04 ± 0.025 for the first, 0.97751 ± 0.00084 for the second.

CAAATGTTTG and GCGAACTTGG are within error of each other in switch fluorescence ratio: 0.998 ± 0.02 for the first, 0.977 ± 0.016 for the second.

TAACGGGGGT and AGTTAGATCT are within error of each other in switch fluorescence ratio: 1.02 ± 0.062 for the first, 1.005 ± 0.009 for the second.

Compared with TTGACGTATT, CGACTACCTT is higher in switch fluorescence ratio: 0.9874 ± 0.006 for the first, 1.21 ± 0.016 for the second.

TTATTTATTT and TAAAGGCGGT are within error of each other in switch fluorescence ratio: 0.975 ± 0.03 for the first, 0.983 ± 0.042 for the second.

CTTATCATGT and GGTTTTATTG are within error of each other in switch fluorescence ratio: 0.981 ± 0.034 for the first, 0.987 ± 0.044 for the second.

TTGCTGGCGG and TTAAAAGGGT are within error of each other in switch fluorescence ratio: 1 ± 0.038 for the first, 0.99 ± 0.013 for the second.

ACTTTGGGGG and GAGGGATACA are within error of each other in switch fluorescence ratio: 1.01 ± 0.042 for the first, 0.99 ± 0.043 for the second.

GGTTTTGGCC and ATGATGGGT are within error of each other in switch fluorescence ratio: 1.02 ± 0.03 for the first, 1.01 ± 0.028 for the second.

TATATTAAAG and ATCTCGGCCG are within error of each other in switch fluorescence ratio: 0.976 ± 0.015 for the first, 0.9864 ± 0.0012 for the second.

TCATGGGTAA and CGGGGGGCCC are within error of each other in switch fluorescence ratio: 1.01 ± 0.029 for the first, 0.97 ± 0.024 for the second.

AAAAGTGTCG and AATTGTATCT are within error of each other in switch fluorescence ratio: 1.06 ± 0.056 for the first, 1.01 ± 0.063 for the second.

In the case of GAAGTAGCGG, the switch fluorescence ratio is reported as 1.018 ± 0.0084.
